Here are results for two molecules from patent US20230331827A1, “POTASSIUM CHANNEL INHIBITORS” (priority 2017, published 2023).

This test has as its system trypsin. As to the kind of experiment: Phage TRF binding assay on immobilised biotinylated trypsin (monoclonal phage ELISA). The conditions noted are these: for % reduction in binding signal: GlyAla mutant (Pro3, Arg4 of EETI-II substituted) versus the clone, monoclonal phage; for Tryspin binding signal (FU): monoclonal phage supernatant, biotinylated trypsin on neutravidin plates. The method, then: Phage display technology facilitates isolation of binders to any given target from large combinatorial repertoires based on proteins and peptides that can be presented on the surface of filamentous phage^105. In order to isolate functional knottin-antibody fusions from the KnotBody libraries multiple rounds of phage display selections on trypsin (cognate antigen for the EETI-II donor) were carried out. Phage particles were prepared by rescuing KnotBody libraries using trypsin cleavable helper phage ^102,106Two rounds of phage display selections were performed on 10 µg/ml biotinylated trypsin immobilised on Streptavidin (for Round-1) or Neutravidin (for round-2) coated Maxisorp™ immunotubes (Thermo Scientific, Cat No. 444202). In both rounds of selection, phage libraries were pre-incubated with streptavidin coated paramagnetic beads (Thermo Fisher Scientific, Cat. No. 11205D). These beads were removed prior to the addition the phage to the antigen tubes to limit the streptavidin binders entering the selection. Polyclonal phage preparations from round-2 selection outputs were analysed for trypsin binding using a time resolved fluorescence (TRF) binding assay. In this assay, polyclonal phage binding to biotinylated trypsin immobilised on neutravidin (Thermo Fisher Scientific, Cat. No 31000) coated Maxisorp™ plates (Thermo Scientific, Cat. No. 437111) was detected using a mouse anti-M13 antibody (GE Healthcare, Cat. No. 27-9420-01) followed by europium conjugated anti-mouse antibody (Perkin Elmer, Cat. No. AD0124).
In order to identify monoclonal KnotBodies with desired binding characteristics, 94 individual clones derived from 2 rounds of selection using EETI-II CDR1 or CDR2 libraries were picked into 96 well culture plates and phage were prepared from each clone. Methods for screening by monoclonal phage ELISA are known in the art^107. […] Clones with >3x binding signal above background were picked as positive clones and sequenced to identify unique clones. 14 and 42 unique binders were identified from EETI-II CDR1 and EETI-II CDR2 libraries respectively (Table 1). 18 binders from the EETI-II CDR2 library and 3 binders from the EETI-II-CDR1 library were chosen for further characterisation based on their VL and linker sequence diversity. These binders were assigned new clone identification numbers (Table 2).
The trypsin binding capability of EETI-II is attributed to proline (Pro3) and arginine (Arg4) residues present in its loop1 (GCPRILMRC; SEQ ID NO: 68). […] Monoclonal phage was prepared from the 21 selected clones and their mutant equivalents. […] Replacement of the trypsin-binding residues of EETI-II abolished the ability of all KnotBody clones to bind to trypsin (Table 3). In order to confirm that the loss of trypsin binding was not due to reduced expression or display of pIII fusion phage was prepared from 11 (randomly chosen) KnotBodies and their GlyAla variants were analysed on a western blot using an antibody which recognises the product of gene 3 (pIII) using an anti-pIII antibody (MoBiTec GmbH) (FIG. 6).
Bovine antibodies have been described with natural ultra-long VH CDR3s containing a solvent exposed double stranded antiparallel sheet approximately 20 A° in length (referred to as the stalk) presenting a folded domain stabilised by 3 disulfide bonds (referred to as the Knob)^10. Zhang and colleagues have shown that the Knob domains of these cow ultra-long VH CDR3 antibodies (ULVC-Ab) can be replaced with other folded proteins such as erythropoietin^13. In this example, we assess the ability of a cow ULVC-Ab to present functional knottin fusions on phage in comparison with a KnotBody. In order to create a Knottin-cow UCLA fusion, the sequence between the first and the last cysteines of the knob region of the Cow ULVC-Ab BLV1H12 was replaced with the sequence of the trypsin binding knottin; EETI-II (EETI-II cow ULVC-Ab). A gene fragment encoding this construct was synthesised (Integrated DNA technologies, Table 21). […]
(In an ELISA, binding on a coated surface is turned into a signal by an enzyme label.)

B1: KB_A07: EETI-II knottin fused into VL CDR2, D1A12 VH; parental KnotBody, isotype control (antibody, V domains shown)
VH: EVQLVESGGGLVRPGGSLRLSCAASGFTFSSYAMSWVRQAPGKGLEWVSAISGSGGSTYYADSVKGRFTISRDNTKNSLYLQMTSLRADDTAFYYCVKDFGPGYGTGWFDYWGPGTLVTVSS
VL: DIQMTQSPSSLSASVGDRVTITCRASQSISSYLNWYQQKPGKAPKLLIYAAGVCPRILMRCKQDSDCLAGCVCGPNGFCGSRSGVPSRFSGSGSGTDFTLTISSLQPEDFATYYCQQGASPPYTFGQGTKVEIKRT
For the molecule B1, the “% reduction in binding signal” value came out at 98% and the “Tryspin binding signal (FU)” value is on record as 21448 FU.

B2: KB_A12: EETI-II knottin fused into VL CDR2, D1A12 VH; parental KnotBody, isotype control (antibody, V domains shown)
VH: EVQLVESGGGLVRPGGSLRLSCAASGFTFSSYAMSWVRQAPGKGLEWVSAISGSGGSTYYADSVKGRFTISRDNTKNSLYLQMTSLRADDTAFYYCVKDFGPGYGTGWFDYWGPGTLVTVSS
VL: QSVLTQPPSVSEAPRQRVTITCSGSSSNIGNNAVNWYQQLPGKAPKLLIYAAGRCPRILMRCKQDSDCLAGCVCGPNGFCGANSGVSDRFSAAKSGTSASLAINGLRSEDEADYYCAAWDDSLNGYVFGTGTKLTVLGQP
Take B2: the “% reduction in binding signal” value is reported as 99% and the “Tryspin binding signal (FU)” value came to 69349 FU. In addition, the “phage binding to trypsin” value (PEG precipitated phage, compared to EETI-II cow ULVC-Ab, FIG. 25) was “superior binding to trypsin”.
